Measured values reported in PMC11952669 (Research Square, 2025).

B1: R.nor ACE2 ectodomain (residues 1–741), dimeric (receptor)
chain: QSLIEEKAESFLNKFNQEAEDLSYQSSLASWNYNTNITEENAQKMNEAAAKWSAFYEEQSKIAQNFSLQEIQNATIKRQLKALQQSGSSALSPDKNKQLNTILNTMSTIYSTGKVCNSMNPQECFLLEPGLDEIMATSTDYNRRLWAWEGWRAEVGKQLRPLYEEYVVLKNEMARANNYEDYGDYWRGDYEAEGVEGYNYNRNQLIEDVENTFKEIKPLYEQLHAYVRTKLMEVYPSYISPTGCLPAHLLGDMWGRFWTNLYPLTTPFLQKPNIDVTDAMVNQSWDAERIFKEAEKFFVSVGLPQMTPGFWTNSMLTEPGDDRKVVCHPTAWDLGHGDFRIKMCTKVTMDNFLTAHHEMGHIQYDMAYAKQPFLLRNGANEGFHEAVGEIMSLSAATPKHLKSIGLLPSNFQEDNETEINFLLKQALTIVGTLPFTYMLEKWRWMVFQDKIPREQWTKKWWEMKREIVGVVEPLPHDETYCDPASLFHVSNDYSFIRYYTRTIYQFQFQEALCQAAKHDGPLHKCDISNSTEAGQKLLNMLSLGNSGPWTLALENVVGSRNMDVKPLLNYFQPLFVWLKEQNRNSTVGWSTDWSPYADQSIKVRISLKSALGKNAYEWTDNEMYLFRSSVAYAMREYFSREKNQTVPFGEADVWVSDLKPRVSFNFFVTSPKNVSDIIPRSEVEEAIRMSRGRINDIFGLNDNSLEFLGIYPTLKPPYEPPVTI
notes: also called soluble dimeric R.nor ACE2; R.nor (Rodent) ACE2; source: Expi293F, purified (Ni Sepharose, Superose-6 gel filtration)

Key:
[1] = molecular target: Biotinylated VsCoV-a7 RBD (residues 356–556) (bat MERSr-CoV VsCoV-a7 (from Vespertilio sinensis)); test: BLI
cryo-EM structure = molecular target: the molecule itself; test: cryo-EM structure

Row | Molecule | Kd [1] | binding result (cryo-EM structure)
1 | E.fus ACE2 ectodomain (residues 1–747), dimeric (receptor) | 816 nM | 
2 | B1 |  | binds
